We go through 1 substance from PMC4642857.

The experiment has as its target microtubule polymerized from porcine brain tubulin, stabilized with paclitaxel (porcine). The experiment is described as follows: co-sedimentation.

What is called Kd is the concentration at which binding is half-saturated. “purified γ stalk–LC1 complex (from UniProt Q9XHH2 1-198)” gave a Bmax/Kd of 0.053 and a Kd of 19 µM.
